Data as given in patent publication US20210269512A1 (NOVOBIND LIVESTOCK THERAPEUTICS, published 2021).

Target: T1, Cpa (phospholipase) (Clostridium perfringens, UniProt P0C216 29-398)
T1 sequence: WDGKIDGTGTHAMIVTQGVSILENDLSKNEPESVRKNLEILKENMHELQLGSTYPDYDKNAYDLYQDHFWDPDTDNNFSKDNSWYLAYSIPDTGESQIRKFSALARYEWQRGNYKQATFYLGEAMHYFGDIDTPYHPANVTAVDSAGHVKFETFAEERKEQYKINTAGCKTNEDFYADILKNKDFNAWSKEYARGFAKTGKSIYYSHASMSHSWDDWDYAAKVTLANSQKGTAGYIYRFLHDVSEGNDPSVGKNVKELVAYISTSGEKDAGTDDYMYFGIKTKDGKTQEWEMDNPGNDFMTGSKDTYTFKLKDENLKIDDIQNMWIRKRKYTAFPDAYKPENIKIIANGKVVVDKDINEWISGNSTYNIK
Assay: phage ELISA, coated antigen

B1: NBX0338 (VHH)
VHH: QVQLQESGGGLVQAGDSLRLSCATSGRSFSSYTMGWFRQTPGKEREFVAAISWSGTYYTDSVKGRFTISRDNAKNTVYLQMNSLKPEDTAVYYCAVGSRRLYYSSDINYWGQGTQVTVSS
binding result: binds

B2: NBX0339 (VHH)
VHH: QVQLQESGGGLVQAGDSLRLSCATSGLTVSRYTMGWFRQTPGKEREFVAAISWSGTYYTDSVKGRFTISRDNAKNMVYLQMNSLKPEDTAVYYCAAGSRRLHYSSDINYWGQGTQVTVSS
binding result: binds

B3: NBX0329 (VHH)
VHH: QVQLQESGGGLVQAGGSLRLSCATSGLTVSRYTMGWFRQTPGKDREFVAAISWSGTYYTDSVKGRFTISVDNAKNMVYLQMNSLKPEDTAVYYCAAGSRRLYYSNDINYWGQGTQVTVSS
binding result: binds

B4: NBX0340 (VHH)
VHH: QVQLQESGGGLVQAGESLRLSCLAAGRTFSTSTLGWFRQAPGLEREFVAAIRYTSDYTARTTDYADSVKGRFAISRDYIKQAVYLQMNNLKPEDTAVYYCAAAKYGMGYSDPSGYTYWGQGTQVTVSS
binding result: binds

B5: NBX0330 (VHH)
VHH: QVQLQESGGGLVQAGGSLRLSCAASSRTFSNYAMAWFRQTPGKEREFLATINGDTTFTIYADSVKGRFTISRDNAKNTLYLQMNSLKAEDTAVYYCAARQWNPTMRERDYGYWGQGTEVTVSS
binding result: binds
